Reference: US6083712

Biological target: biotin synthase (Escherichia coli) (UniProt P12996)

| Substance | pmol of biotin produced [pmol] |
| --- | --- |
| ferredoxin(flavodoxin)-NADP+ reductase (from UniProt P28861) (enzyme) | 800 |
| flavodoxin (from UniProt P61949) | 800 |
